Reference: PMC4571279 (2015)
Numbering of substitutions follows the chain as printed.

B1: IgG1 m336-gL (all light-chain somatic mutations reverted to germline) (antibody, V domains shown)
VH: QVQLVQSGAEVKKPGSSVKVSCKASGGTFSSYAISWVRQAPGQGLEWMGGIIPIFGTASYAQKFQGRVTITADKSTSTAYMELSSLRSEDTAVYYCARVGYCSSTSCNRGAFDIWGQGTMVTVSS
VL: DIQMTQSPSSLSASVGDRVTITCRASQGIRNDLGWYQQKPGKAPKRLIYAASSLQSGVPSRFSGSGSGTEFTLTISSLQPEDFATYYCLQHNSYPLTFGGGTKVEIK
B2: IgG1 m336-gH (heavy-chain somatic mutation reverted to germline) (antibody, V domains shown)
VH: B1 VH with S59N
VL: B1 VL with M4L, R46L, E70D, L89Q, H91L
B3: IgG1 m336 (antibody, V domains shown)
VH: B1 VH
VL: B1 VL with M4L, R46L, E70D, L89Q, H91L
B4: IgG1 m336-gL-FR (light-chain framework somatic mutations reverted to germline) (antibody, V domains shown)
VH: B1 VH
VL: B1 VL with L89Q, H91L

Experiments:
[1] = molecular target: recombinant MERS-CoV S1 protein (MERS-CoV); test: SPR
[2] = molecular target: recombinant MERS-CoV S1 protein (MERS-CoV); test: SPR; remark: listed apart in the source

Row | Binder | Kd [1] | koff [2]
1 | B1 | 25.2 nM | 0.000545 s⁻¹
2 | B2 | 0.239 nM | 0.000329 s⁻¹
3 | B3 | 1.49 nM | 0.000955 s⁻¹
4 | B4 | 15.7 nM | 0.000769 s⁻¹
